# US20130005646A1 (Novo Nordisk, published 2013)
# Starred links: 1 amine or outer side, 2 acyl side, 3 side chain; linkers in the order of their positions; H or OH if unused. Positions of bridges follow the written chain, without caps; N, C: chain ends. Groups on a side chain read outwards from the residue. No end group written: not given here. *: point of attachment. C20 diacid = O=C(O)CCCCCCCCCCCCCCCCCCC(=O)*; C18 diacid = O=C(O)CCCCCCCCCCCCCCCCC(=O)*; γGlu = O=C(O)[C@H](CCC(=O)[*:2])N[*:1]; AEEA = NCCOCCOCC(=O)O
# T1: human calcitonin (a) receptor (human, UniProt P30988 25-474)
# T1 sequence (looked up): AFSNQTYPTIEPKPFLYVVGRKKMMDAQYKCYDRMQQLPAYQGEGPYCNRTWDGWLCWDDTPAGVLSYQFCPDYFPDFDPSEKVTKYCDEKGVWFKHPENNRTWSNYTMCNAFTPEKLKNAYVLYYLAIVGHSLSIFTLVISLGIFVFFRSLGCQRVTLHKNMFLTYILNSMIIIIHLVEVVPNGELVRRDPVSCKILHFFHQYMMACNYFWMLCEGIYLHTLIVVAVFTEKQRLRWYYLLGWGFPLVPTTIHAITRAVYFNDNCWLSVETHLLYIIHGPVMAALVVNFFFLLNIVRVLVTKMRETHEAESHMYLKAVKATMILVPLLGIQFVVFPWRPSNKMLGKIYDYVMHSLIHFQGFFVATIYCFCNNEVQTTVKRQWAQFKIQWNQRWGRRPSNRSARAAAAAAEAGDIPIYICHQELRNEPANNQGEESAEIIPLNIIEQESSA
# T2: human amylin 3(a) receptor (human calcitonin receptor + RAMP-3) (human, UniProt P30988 25-474; O60896 24-148)
# T2 sequence (looked up) 1: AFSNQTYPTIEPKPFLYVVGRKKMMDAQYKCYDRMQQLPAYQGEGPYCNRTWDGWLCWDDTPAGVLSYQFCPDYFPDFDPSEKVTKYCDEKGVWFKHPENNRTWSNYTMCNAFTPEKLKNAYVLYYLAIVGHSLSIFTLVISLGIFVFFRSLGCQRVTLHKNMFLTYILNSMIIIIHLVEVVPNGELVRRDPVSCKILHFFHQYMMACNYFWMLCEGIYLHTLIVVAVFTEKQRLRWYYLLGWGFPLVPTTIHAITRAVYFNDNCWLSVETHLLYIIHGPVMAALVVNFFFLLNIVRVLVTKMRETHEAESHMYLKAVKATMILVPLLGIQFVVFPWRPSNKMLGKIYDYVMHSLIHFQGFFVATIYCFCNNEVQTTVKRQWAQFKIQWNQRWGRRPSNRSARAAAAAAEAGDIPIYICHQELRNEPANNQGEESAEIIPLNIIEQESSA
# T2 sequence (looked up) 2: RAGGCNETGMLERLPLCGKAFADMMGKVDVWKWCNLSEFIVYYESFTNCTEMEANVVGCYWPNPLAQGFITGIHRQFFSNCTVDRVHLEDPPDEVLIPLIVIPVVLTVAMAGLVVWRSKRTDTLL
# What was measured:
# [1] = molecular target: T1, human calcitonin (a) receptor; experiment: cell-based or functional assay
# [2] = molecular target: T2, human amylin 3(a) receptor (human …); experiment: cell-based or functional assay
Binder,CTa receptor human EC50 [1] [pM],Amylin receptor human EC50 [2] [pM]
{C20 diacid-γGlu}-HCNTATCATQRLAEFLHRSSNNFGPILPPTNVGSHTY-NH2 (disulfide 2-7; SMILES CC[C@H](C)[C@H](NC(=O)[C@@H]1CCCN1C(=O)CNC(=O)[C@H](Cc1ccccc1)NC(=O)[C@H](CC(N)=O)NC(=O)[C@H](CC(N)=O)NC(=O)[C@H](CO)NC(=O)[C@H](CO)NC(=O)[C@H](CCCNC(=N)N)NC(=O)[C@H](Cc1c[nH]cn1)NC(=O)[C@H](CC(C)C)NC(=O)[C@H](Cc1ccccc1)NC(=O)[C@H](CCC(=O)O)NC(=O)[C@H](C)NC(=O)[C@H](CC(C)C)NC(=O)[C@H](CCCNC(=N)N)NC(=O)[C@H](CCC(N)=O)NC(=O)[C@@H](NC(=O)[C@H](C)NC(=O)[C@@H]1CSSC[C@H](NC(=O)[C@H](Cc2c[nH]cn2)NC(=O)CC[C@H](NC(=O)CCCCCCCCCCCCCCCCCCC(=O)O)C(=O)O)C(=O)N[C@@H](CC(N)=O)C(=O)N[C@@H]([C@@H](C)O)C(=O)N[C@@H](C)C(=O)N[C@@H]([C@@H](C)O)C(=O)N1)[C@@H](C)O)C(=O)N[C@@H](CC(C)C)C(=O)N1CCC[C@H]1C(=O)N1CCC[C@H]1C(=O)N[C@H](C(=O)N[C@@H](CC(N)=O)C(=O)N[C@H](C(=O)NCC(=O)N[C@@H](CO)C(=O)N[C@@H](Cc1c[nH]cn1)C(=O)N[C@H](C(=O)N[C@@H](Cc1ccc(O)cc1)C(N)=O)[C@@H](C)O)C(C)C)[C@@H](C)O),110,66
"{C20 diacid-γGlu}-KCNTATCATQRLAEFLHRSSNNFGPILPPTNVGSHTY-NH2 (disulfide 2-7; SMILES CC[C@H](C)[C@H](NC(=O)[C@@H]1CCCN1C(=O)CNC(=O)[C@H](Cc1ccccc1)NC(=O)[C@H](CC(N)=O)NC(=O)[C@H](CC(N)=O)NC(=O)[C@H](CO)NC(=O)[C@H](CO)NC(=O)[C@H](CCCNC(=N)N)NC(=O)[C@H](Cc1c[nH]cn1)NC(=O)[C@H](CC(C)C)NC(=O)[C@H](Cc1ccccc1)NC(=O)[C@H](CCC(=O)O)NC(=O)[C@H](C)NC(=O)[C@H](CC(C)C)NC(=O)[C@H](CCCNC(=N)N)NC(=O)[C@H](CCC(N)=O)NC(=O)[C@@H](NC(=O)[C@H](C)NC(=O)[C@@H]1CSSC[C@H](NC(=O)[C@H](CCCCN)NC(=O)CC[C@H](NC(=O)CCCCCCCCCCCCCCCCCCC(=O)O)C(=O)O)C(=O)N[C@@H](CC(N)=O)C(=O)N[C@@H]([C@@H](C)O)C(=O)N[C@@H](C)C(=O)N[C@@H]([C@@H](C)O)C(=O)N1)[C@@H](C)O)C(=O)N[C@@H](CC(C)C)C(=O)N1CCC[C@H]1C(=O)N1CCC[C@H]1C(=O)N[C@H](C(=O)N[C@@H](CC(N)=O)C(=O)N[C@H](C(=O)NCC(=O)N[C@@H](CO)C(=O)N[C@@H](Cc1c[nH]cn1)C(=O)N[C@H](C(=O)N[C@@H](Cc1ccc(O)cc1)C(N)=O)[C@@H](C)O)C(C)C)[C@@H](C)O) [N-alpha-[(S)-4-Carboxy-4-(19-carboxynonadecanoylamino)butyryl]-[Glu14,His17,Arg18,His35]-pramlintide]",96.5,68.5
KCNTATCATQRLAEFLK([AEEA-AEEA-γGlu-C18 diacid])HSSNNFGPILPPTNVGSNTY-NH2 (disulfide 2-7; N-terminus assumed; SMILES CC[C@H](C)[C@H](NC(=O)[C@@H]1CCCN1C(=O)CNC(=O)[C@H](Cc1ccccc1)NC(=O)[C@H](CC(N)=O)NC(=O)[C@H](CC(N)=O)NC(=O)[C@H](CO)NC(=O)[C@H](CO)NC(=O)[C@H](Cc1c[nH]cn1)NC(=O)[C@H](CCCCNC(=O)COCCOCCNC(=O)COCCOCCNC(=O)CC[C@H](NC(=O)CCCCCCCCCCCCCCCCC(=O)O)C(=O)O)NC(=O)[C@H](CC(C)C)NC(=O)[C@H](Cc1ccccc1)NC(=O)[C@H](CCC(=O)O)NC(=O)[C@H](C)NC(=O)[C@H](CC(C)C)NC(=O)[C@H](CCCNC(=N)N)NC(=O)[C@H](CCC(N)=O)NC(=O)[C@@H](NC(=O)[C@H](C)NC(=O)[C@@H]1CSSC[C@H](NC(=O)[C@@H](N)CCCCN)C(=O)N[C@@H](CC(N)=O)C(=O)N[C@@H]([C@@H](C)O)C(=O)N[C@@H](C)C(=O)N[C@@H]([C@@H](C)O)C(=O)N1)[C@@H](C)O)C(=O)N[C@@H](CC(C)C)C(=O)N1CCC[C@H]1C(=O)N1CCC[C@H]1C(=O)N[C@H](C(=O)N[C@@H](CC(N)=O)C(=O)N[C@H](C(=O)NCC(=O)N[C@@H](CO)C(=O)N[C@@H](CC(N)=O)C(=O)N[C@H](C(=O)N[C@@H](Cc1ccc(O)cc1)C(N)=O)[C@@H](C)O)C(C)C)[C@@H](C)O),4300,456
"{C20 diacid-γGlu}-GKCNTATCATQRLAEFLHHSSNNFGPILPPTNVGSHTY-NH2 (disulfide 3-8; SMILES CC[C@H](C)[C@H](NC(=O)[C@@H]1CCCN1C(=O)CNC(=O)[C@H](Cc1ccccc1)NC(=O)[C@H](CC(N)=O)NC(=O)[C@H](CC(N)=O)NC(=O)[C@H](CO)NC(=O)[C@H](CO)NC(=O)[C@H](Cc1c[nH]cn1)NC(=O)[C@H](Cc1c[nH]cn1)NC(=O)[C@H](CC(C)C)NC(=O)[C@H](Cc1ccccc1)NC(=O)[C@H](CCC(=O)O)NC(=O)[C@H](C)NC(=O)[C@H](CC(C)C)NC(=O)[C@H](CCCNC(=N)N)NC(=O)[C@H](CCC(N)=O)NC(=O)[C@@H](NC(=O)[C@H](C)NC(=O)[C@@H]1CSSC[C@H](NC(=O)[C@H](CCCCN)NC(=O)CNC(=O)CC[C@H](NC(=O)CCCCCCCCCCCCCCCCCCC(=O)O)C(=O)O)C(=O)N[C@@H](CC(N)=O)C(=O)N[C@@H]([C@@H](C)O)C(=O)N[C@@H](C)C(=O)N[C@@H]([C@@H](C)O)C(=O)N1)[C@@H](C)O)C(=O)N[C@@H](CC(C)C)C(=O)N1CCC[C@H]1C(=O)N1CCC[C@H]1C(=O)N[C@H](C(=O)N[C@@H](CC(N)=O)C(=O)N[C@H](C(=O)NCC(=O)N[C@@H](CO)C(=O)N[C@@H](Cc1c[nH]cn1)C(=O)N[C@H](C(=O)N[C@@H](Cc1ccc(O)cc1)C(N)=O)[C@@H](C)O)C(C)C)[C@@H](C)O) [N-alpha-[(S)-4-Carboxy-4-(19-carboxynonadecanoylamino)butyryl]-Gly-[Glu14,His17,His35]-pramlintide]",70.5,95.5
{C18 diacid-γGlu-AEEA-AEEA}-ECNTATCATQRLAEFLHHSSNNFGPILPPTNVGSNTP-NH2 (disulfide 2-7; SMILES CC[C@H](C)[C@H](NC(=O)[C@@H]1CCCN1C(=O)CNC(=O)[C@H](Cc1ccccc1)NC(=O)[C@H](CC(N)=O)NC(=O)[C@H](CC(N)=O)NC(=O)[C@H](CO)NC(=O)[C@H](CO)NC(=O)[C@H](Cc1c[nH]cn1)NC(=O)[C@H](Cc1c[nH]cn1)NC(=O)[C@H](CC(C)C)NC(=O)[C@H](Cc1ccccc1)NC(=O)[C@H](CCC(=O)O)NC(=O)[C@H](C)NC(=O)[C@H](CC(C)C)NC(=O)[C@H](CCCNC(=N)N)NC(=O)[C@H](CCC(N)=O)NC(=O)[C@@H](NC(=O)[C@H](C)NC(=O)[C@@H]1CSSC[C@H](NC(=O)[C@H](CCC(=O)O)NC(=O)COCCOCCNC(=O)COCCOCCNC(=O)CC[C@H](NC(=O)CCCCCCCCCCCCCCCCC(=O)O)C(=O)O)C(=O)N[C@@H](CC(N)=O)C(=O)N[C@@H]([C@@H](C)O)C(=O)N[C@@H](C)C(=O)N[C@@H]([C@@H](C)O)C(=O)N1)[C@@H](C)O)C(=O)N[C@@H](CC(C)C)C(=O)N1CCC[C@H]1C(=O)N1CCC[C@H]1C(=O)N[C@H](C(=O)N[C@@H](CC(N)=O)C(=O)N[C@H](C(=O)NCC(=O)N[C@@H](CO)C(=O)N[C@@H](CC(N)=O)C(=O)N[C@H](C(=O)N1CCC[C@H]1C(N)=O)[C@@H](C)O)C(C)C)[C@@H](C)O),288,108
KCNTATCATQRLAEFLK([AEEA-AEEA-γGlu-C18 diacid])HSSSNFGPILPPTNVGSETY-NH2 (disulfide 2-7; N-terminus assumed; SMILES CC[C@H](C)[C@H](NC(=O)[C@@H]1CCCN1C(=O)CNC(=O)[C@H](Cc1ccccc1)NC(=O)[C@H](CC(N)=O)NC(=O)[C@H](CO)NC(=O)[C@H](CO)NC(=O)[C@H](CO)NC(=O)[C@H](Cc1c[nH]cn1)NC(=O)[C@H](CCCCNC(=O)COCCOCCNC(=O)COCCOCCNC(=O)CC[C@H](NC(=O)CCCCCCCCCCCCCCCCC(=O)O)C(=O)O)NC(=O)[C@H](CC(C)C)NC(=O)[C@H](Cc1ccccc1)NC(=O)[C@H](CCC(=O)O)NC(=O)[C@H](C)NC(=O)[C@H](CC(C)C)NC(=O)[C@H](CCCNC(=N)N)NC(=O)[C@H](CCC(N)=O)NC(=O)[C@@H](NC(=O)[C@H](C)NC(=O)[C@@H]1CSSC[C@H](NC(=O)[C@@H](N)CCCCN)C(=O)N[C@@H](CC(N)=O)C(=O)N[C@@H]([C@@H](C)O)C(=O)N[C@@H](C)C(=O)N[C@@H]([C@@H](C)O)C(=O)N1)[C@@H](C)O)C(=O)N[C@@H](CC(C)C)C(=O)N1CCC[C@H]1C(=O)N1CCC[C@H]1C(=O)N[C@H](C(=O)N[C@@H](CC(N)=O)C(=O)N[C@H](C(=O)NCC(=O)N[C@@H](CO)C(=O)N[C@@H](CCC(=O)O)C(=O)N[C@H](C(=O)N[C@@H](Cc1ccc(O)cc1)C(N)=O)[C@@H](C)O)C(C)C)[C@@H](C)O),8430,1750
